Measured values reported in patent US20090048164A1.
Read-outs that look alike come from different tables or passages of the source.

How the values were obtained:
[1] = biological target: mouse Mcl-1 with truncations of 151 amino acid residues at its N-terminus and 23 residues at its C-terminus (mouse) (UniProt P97287); assay: competition phage ELISA
[2] = biological target: Recombinant human Bcl-xL with a 25 amino acid truncation of its C-terminus (human) (UniProt Q07817); assay: competition phage ELISA
[3] = biological target: Bcl-2; assay: competition phage ELISA
[4] = biological target: Bcl-w; assay: competition phage ELISA
[5] = biological target: Recombinant human Bcl-xL with a 25 amino acid truncation of its C-terminus (human) (UniProt Q07817); assay: competition phage ELISA; remark: listed apart in the source
[6] = biological target: Recombinant human Bcl-xL with a 25 amino acid truncation of its C-terminus (human) (UniProt Q07817); assay: Bim BH3 substitution scan
[7] = biological target: A1; assay: Biacore competition vs immobilised BimBH3
[8] = biological target: Bcl-2; assay: Biacore competition vs immobilised BimBH3
[9] = biological target: Bcl-w; assay: Biacore competition vs immobilised BimBH3
[10] = biological target: Recombinant human Bcl-xL with a 25 amino acid truncation of its C-terminus (human) (UniProt Q07817); assay: Biacore competition vs immobilised BimBH3
[11] = biological target: mouse Mcl-1 with truncations of 151 amino acid residues at its N-terminus and 23 residues at its C-terminus (mouse) (UniProt P97287); assay: Biacore competition vs immobilised BimBH3
[12] = biological target: A1; assay: Biacore competition, synthetic peptides; against wild-type BimBH3 peptide
[13] = biological target: Bcl-2; assay: as above
[14] = biological target: Bcl-w; assay: as above
[15] = biological target: Recombinant human Bcl-xL with a 25 amino acid truncation of its C-terminus (human) (UniProt Q07817); assay: as above
[16] = biological target: mouse Mcl-1 with truncations of 151 amino acid residues at its N-terminus and 23 residues at its C-terminus (mouse) (UniProt P97287); assay: as above
[17] = biological target: A1; assay: Biacore competition, synthetic peptides
[18] = biological target: mouse Mcl-1 with truncations of 151 amino acid residues at its N-terminus and 23 residues at its C-terminus (mouse) (UniProt P97287); assay: Biacore competition, synthetic peptides
[19] = biological target: pro-survival proteins; assay: cell-based or functional assay

Bcl-w, sequence (Q92843 1-164): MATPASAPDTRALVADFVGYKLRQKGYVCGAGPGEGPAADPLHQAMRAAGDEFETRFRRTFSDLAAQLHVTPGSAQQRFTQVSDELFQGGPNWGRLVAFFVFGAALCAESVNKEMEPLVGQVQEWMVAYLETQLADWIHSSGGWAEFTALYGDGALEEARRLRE
Recombinant human Bcl-xL with a 25 amino acid truncation of its C-terminus (human), sequence (Q07817 1-208): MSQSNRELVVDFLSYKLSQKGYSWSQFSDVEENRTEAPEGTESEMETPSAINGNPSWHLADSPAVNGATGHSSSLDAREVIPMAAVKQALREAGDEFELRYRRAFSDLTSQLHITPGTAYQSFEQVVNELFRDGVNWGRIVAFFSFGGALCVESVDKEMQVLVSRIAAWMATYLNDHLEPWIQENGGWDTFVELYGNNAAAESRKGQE
mouse Mcl-1 with truncations of 151 amino acid residues at its N-terminus and 23 residues at its C-terminus (mouse), sequence (P97287 152-308): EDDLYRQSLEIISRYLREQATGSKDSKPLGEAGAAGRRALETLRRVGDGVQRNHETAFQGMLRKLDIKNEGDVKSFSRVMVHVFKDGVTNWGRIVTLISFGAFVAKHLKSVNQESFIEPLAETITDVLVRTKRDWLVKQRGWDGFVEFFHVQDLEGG
Bcl-2, sequence (P10415 1-217): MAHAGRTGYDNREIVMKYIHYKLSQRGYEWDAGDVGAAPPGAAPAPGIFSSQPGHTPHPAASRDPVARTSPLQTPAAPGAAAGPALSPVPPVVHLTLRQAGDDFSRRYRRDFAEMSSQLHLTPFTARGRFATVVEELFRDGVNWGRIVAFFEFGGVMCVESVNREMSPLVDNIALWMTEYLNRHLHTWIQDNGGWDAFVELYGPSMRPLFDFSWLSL

Substance | Fold/wt [1] | IC50 [1] | Fold/wt [2] | IC50 [2] | also measured
Bim BH3 A9E, phage-displayed (peptide) | 3 fold | 32 nM | – | – | –
Bim BH3 A21E, phage-displayed (peptide) | 2 fold | 16 nM | 1 fold | 3 nM | –
Bim BH3 A24E, phage-displayed (peptide) | 1 fold | 8 nM | 1 fold | 2 nM | –
Bim BH3 D1A, phage-displayed (peptide) | 1 fold | 10 nM | 1 fold | 3 nM | –
Bim BH3 D17A, phage-displayed (peptide) | 28 fold | 256 nM | – | – | fold effect on binding [1]: 15 fold
Bim BH3 E5A, phage-displayed (peptide) | 1 fold | 10 nM | 1 fold | 3 nM | –
Bim BH3 E11A, phage-displayed (peptide) | 1 fold | 10 nM | 1 fold | 4 nM | –
Bim BH3 E18A, phage-displayed (peptide) | 9 fold | 80 nM | 3 fold | 8 nM | –
Bim BH3 F19A, phage-displayed (peptide) | – | 16 nM | 24 fold | 69 nM | IC50 [3]: 11 nM; Fold/wt [4]: 18 fold; IC50 [4]: 364 nM; IC50 [5]: 60 nM; fold weaker than wild-type BimBH3 [5]: 20 fold
Bim BH3 G16E, phage-displayed (peptide) | 3 fold | 27 nM | – | – | fold effect on binding [1]: 38 fold
Bim BH3 I6A, phage-displayed (peptide) | 1 fold | 11 nM | 3 fold | 8 nM | –
Bim BH3 I8A, phage-displayed (peptide) | 1 fold | 9 nM | 2 fold | 7 nM | Fold/wt [3]: 3 fold; IC50 [3]: 17 nM; Fold/wt [4]: 4 fold; IC50 [4]: 74 nM
Bim BH3 I15A, phage-displayed (peptide) | 1 fold | 10 nM | 1 fold | 2 nM | Fold/wt [3]: 1 fold; IC50 [3]: 7 nM; Fold/wt [4]: 1 fold; IC50 [4]: 18 nM
Bim BH3 L12A, phage-displayed (peptide) | 1 fold | 10 nM | 43 fold | 124 nM | Fold/wt [4]: 24 fold; IC50 [4]: 486 nM; IC50 [5]: 130 nM; fold weaker than wild-type BimBH3 [5]: 50 fold; fold decrease in affinity [6]: 50 to 80 fold
Bim BH3 L12F, phage-displayed (peptide) | – | – | – | – | fold decrease in binding affinity [6]: 5 fold
Bim BH3 L12V, phage-displayed (peptide) | – | – | – | – | fold decrease in affinity [6]: 50 to 80 fold
Bim BH3 L12W, phage-displayed (peptide) | – | – | – | – | fold decrease in binding affinity [6]: 22 fold
Bim BH3 M2A, phage-displayed (peptide) | 1 fold | 13 nM | 2 fold | 4 nM | –
Bim BH3 N20A, phage-displayed (peptide) | 1 fold | 7 nM | 2 fold | 5 nM | –
Bim BH3 P4A, phage-displayed (peptide) | 1 fold | 12 nM | 1 fold | 3 nM | –
Bim BH3 Q10A, phage-displayed (peptide) | 1 fold | 10 nM | 1 fold | 4 nM | –
Bim BH3 R3A, phage-displayed (peptide) | 1 fold | 9 nM | 1 fold | 3 nM | –

Substance | Fold/wt [1] | IC50 [1] | Fold/wt [2] | IC50 [2] | also measured
Bim BH3 R13A, phage-displayed (peptide) | 1 fold | 13 nM | 1 fold | 4 nM | –
Bim BH3 R14A, phage-displayed (peptide) | 1 fold | 10 nM | 2 fold | 5 nM | –
Bim BH3 R25A, phage-displayed (peptide) | 1 fold | 8 nM | 1 fold | 2 nM | –
Bim BH3 R26A, phage-displayed (peptide) | 1 fold | 8 nM | 1 fold | 4 nM | –
Bim BH3 W7A, phage-displayed (peptide) | 1 fold | 10 nM | 1 fold | 3 nM | –
Bim BH3 Y22A, phage-displayed (peptide) | 1 fold | 12 nM | 1 fold | 4 nM | –
Bim BH3 Y23A, phage-displayed (peptide) | 1 fold | 12 nM | 1 fold | 4 nM | –
BimBH3 A9E synthetic peptide | – | – | – | – | Fold/wt BimBH3 [7]: 7 fold; Fold/wt BimBH3 [8]: 56 fold; Fold/wt BimBH3 [9]: 34 fold; Fold/wt BimBH3 [10]: 68 fold; Fold/wt BimBH3 [11]: 2 fold
BimBH3 D17A synthetic peptide | – | – | – | – | Fold/wt BimBH3 [7]: 1 fold; Fold/wt BimBH3 [8]: 4 fold; Fold/wt BimBH3 [9]: 30 fold; Fold/wt BimBH3 [10]: 3 fold; Fold/wt BimBH3 [11]: 2 fold
BimBH3 F19A synthetic peptide | – | – | – | – | Fold/wt BimBH3 [7]: 1 fold; Fold/wt BimBH3 [8]: 3 fold; Fold/wt BimBH3 [9]: 8 fold; Fold/wt BimBH3 [11]: 1 fold; fold decrease in binding affinity [12]: < 3 fold; fold decrease in binding affinity [13]: < 3 fold; fold decrease in binding affinity [14]: 8 fold; fold decrease in binding affinity [15]: < 3 fold; fold decrease in binding affinity [16]: < 3 fold
BimBH3 G16E synthetic peptide | – | – | – | – | Fold/wt BimBH3 [7]: 260 fold; Fold/wt BimBH3 [8]: 306 fold; Fold/wt BimBH3 [9]: > 256 fold; Fold/wt BimBH3 [10]: 83 fold; Fold/wt BimBH3 [11]: 18 fold
BimBH3 I8A synthetic peptide | – | – | – | – | Fold/wt BimBH3 [7]: 1 fold; Fold/wt BimBH3 [8]: 3 fold; Fold/wt BimBH3 [9]: 2 fold; Fold/wt BimBH3 [10]: 1 fold; Fold/wt BimBH3 [11]: 1 fold
BimBH3 I15A synthetic peptide | – | – | – | – | Fold/wt BimBH3 [7]: 2 fold; Fold/wt BimBH3 [8]: 2 fold; Fold/wt BimBH3 [9]: 1 fold; Fold/wt BimBH3 [10]: 1 fold; Fold/wt BimBH3 [11]: 2 fold
BimBH3 L12A + F19A synthetic peptide | – | – | – | – | Fold/wt BimBH3 [7]: 120 fold; Fold/wt BimBH3 [10]: > 1560 fold; Fold/wt BimBH3 [11]: 1 fold
BimBH3 L12A synthetic peptide | – | – | – | – | fold decrease in binding affinity [17]: 7 fold; fold decrease in binding affinity [18]: 2 fold; Fold/wt BimBH3 [7]: 17 fold; Fold/wt BimBH3 [8]: 43 fold; Fold/wt BimBH3 [9]: 31 fold; Fold/wt BimBH3 [10]: 11 fold; Fold/wt BimBH3 [11]: 1 fold
BimS A9E | – | – | – | – | % viability in wild-type MEFs [19]: 55%
BimS F19A | – | – | – | – | % viability in wild-type MEFs [19]: 22%
BimS G16E | – | – | – | – | % viability in wild-type MEFs [19]: 93%
BimS L12A | – | – | – | – | % viability in wild-type MEFs [19]: 57%
mNoxaA BH3 D26A, phage-displayed (peptide) | 2 fold | 62 nM | – | – | –
wild-type full-length BimS | – | – | – | – | % viability in wild-type MEFs [19]: 19%
